Source: PMC7212079

Biological target: Hsp32
Assay: native MS

Hsp32 (natural protein)
stoichiometry N: 2
